In the supplement of paper PMC12636428:

System: Saccharomyces cerevisiae
Assay: transcriptional activation domain activity (GFP:mCherry ratio, weighted mean of sorted bins, harmonized to initial dataset scale) (arbitrary fluorescence ratio units); higher = stronger transcriptional activation
Settings: beta-estradiol 1 µM; induction time 4 h
Method in brief: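 Activation activity, the read-weighted mean of bin median fluorescence averaged across barcodes, was linearly mapped onto the scale of the initial dataset. It was measured for barcoded protein tiles fused to an estradiol-inducible synthetic transcription factor at URA3 in GFP-reporter yeast diploids. Cultures diluted 1:5 into SC with 1 uM beta-estradiol were held 4 hours at 30 °C, sorted into 8 bins by GFP:mCherry ratio, and barcode-sequenced, and tiles under 50 reads were discarded.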

Sequence: EEGDMDVDEEEGTPTKKRKLSKEEKKALKKEKKKAAKDAAAAVSDYWIVCDQS
- transcriptional activation domain activity: 45200

Sequence: MPNEESKPVDQAAQEAEASKAVEELKLDEGSASKGKSSKKDKIKNAISSISSS
- transcriptional activation domain activity: 26800

Sequence: IGWWMVKSGLKDDLFAPGSHPRVSQYRLTAHLSTAFFCYSWMLLAGLSVLRTR
- transcriptional activation domain activity: 69800

Sequence: RNILLFTMVADGESSLVIWSIFYHFFLDDNSLGLLLAQCRKLVQISNDMQTWM
- transcriptional activation domain activity: 58900

Sequence: LLYVMALLMWLFAIAILFPPSALTVVRHDFLEQIPQVVPNLDVAYGRNIEGVK
- transcriptional activation domain activity: 41800

Sequence: EAVPHQDNDSFRSEKKEGEAEVQIVEDVGSSIYGCDRTQRTLKNRHIQLIGVG
- transcriptional activation domain activity: 50200

Sequence: TGAGLFFFFHLFLCVWGIEILLVALDFPFFFFWFPYCAWAVSVRLGFGMIPKI
- transcriptional activation domain activity: 66900

Sequence: LLKYAEWLIKPEQNNGSWVADVLWPVLNLDLQWISSHWNESSWDLWWPPIWGG
- transcriptional activation domain activity: 32400

Sequence: CFALVVAFGISRNTLLVKAFRCIQYCLSKMSYCLATRLQCCPEYSCYIHQPGD
- transcriptional activation domain activity: 75300

Sequence: DSSAETGPGEDPSLVLPGLHMTLMRRFALKSKDRDRVSVEILGLLIRVLGVLG
- transcriptional activation domain activity: 59800

Sequence: MKLMLSLYLLRMIFSLLVFFLLSGNVVATLFGFSMCFLIRFGWCCVLSYVLSF
- transcriptional activation domain activity: 68500

Sequence: IPYVAQEYGFDYELVTYKWPSWLRAQKEKQRVIWAYKILFLDVLFPLDLKKVI
- transcriptional activation domain activity: 62100

Sequence: IWRCTLFLLYGGHFEAALTCIRASASIGTFRDINVACGRNVAFFLSVLIEKKR
- transcriptional activation domain activity: 63000

Sequence: KQYCVRPNSGRIEVGSEVEVQVLLQAMREDPPPDARCRDKFLVQSVAITPERD
- transcriptional activation domain activity: 42800

Sequence: KPLGRQELQRFVALLHSHLETQILEYMHTRRKLSDVVLFLRRTLATCLLLYGC
- transcriptional activation domain activity: 38100

Sequence: RRDALRAQQQRDTHARHGAGAARKHGQPVCVRQHRGQLHLSEPVGGAAAAAVH
- transcriptional activation domain activity: 66200

Sequence: DGNAGQTAGNAGNGRQNGNGRQGGNGGAGQQGKPRPNGQKGQQGQRGQGAGAG
- transcriptional activation domain activity: 20500

Sequence: ALYGLQAVVFVVIPLLQIIQIALILCQFFVANYFTIFSFVNVLFIIVAVFAFL
- transcriptional activation domain activity: 41400

Sequence: MEQTNKEDSGSDTQACPICDAPAVNRCSRCASVYYCSQEHQKEVRYESPSNAL
- transcriptional activation domain activity: 49900

Sequence: IKPEEPVVAAAEEPATAPVVEETKPEEVAAEVAAEEDAAPVEEATPAEEVKPE
- transcriptional activation domain activity: 12400

Sequence: KGFSLTELVFWLWSLGFILDELVGFSDAGFTLYVMSLWNWFDLIILLLLCSYA
- transcriptional activation domain activity: 49900

Sequence: KVVLTERLARGKAEIKDLQVCFECMSLVGMKINIFKGNGFMWTIACSVLFQKG
- transcriptional activation domain activity: 52100

Sequence: ICFSPPLISCGGFFPSDLLPFLFHSFSFYFLTCWLPVYFLPPLFVACFFICLP
- transcriptional activation domain activity: 60100

Sequence: LVMWTVILCPVFSFPDRGHGSMLFFLFKLCLAMLLTYLLAMLWFHCVYCIVVF
- transcriptional activation domain activity: 32700

Sequence: VLGELSRFAGGPEETPIHIGTLYYLNVHTAPPYFWQRCQALLYRNTLLLSWIA
- transcriptional activation domain activity: 52200

Sequence: QLQPFSESQSQNKFDYDMFFRDSSKEGNNLFGEFLEDDDDDKKAANMSDDESS
- transcriptional activation domain activity: 43800

Sequence: NLFGWVRYAGVSVDHLKVHIVGAELWNRYKYAAGIWGYRALPIIALMASLIAC
- transcriptional activation domain activity: 54200

Sequence: EAPAAEPVKETETAAEAAPAEAPAEAAAEETKEEKKEEKKEEKVKASKVGRRL
- transcriptional activation domain activity: 44900

Sequence: WYHYLPLCGTIFLILLPQPSWLWILVDFHLQTLHRPGLFIIHLLVSYTLIFMI
- transcriptional activation domain activity: 38500

Sequence: CIIIVFIIRFLVLDLIGMFVCIYWVSFLFYFILFYFISRMVLHRVFFFFSFLI
- transcriptional activation domain activity: 49700

Sequence: MYYCLFSFLFFLFAFPCVFLLLFTVFFSPYFFFAGFFFYLSLSLLVCVWTIDE
- transcriptional activation domain activity: 41600

Sequence: MVSYLIGALDIHMYGIWFWPFWLFESWASWIGLRDVFYLFIFFPLFFSLYSTL
- transcriptional activation domain activity: 49600

Sequence: MFMGTLLLVFLHYDWAFFLDCCLWCFVISFCFCSVKFCLLVGCCILVLCNVAR
- transcriptional activation domain activity: 70200

Sequence: MLVRCPHLILNHKMPVLYLLFYLHIFHSLLLPFCIYASFFSFILFYQIGIFLL
- transcriptional activation domain activity: 48400

Sequence: GSTPGKTASTGRGTAGGKGVAAGSKAPASTRGGGGGTAGGGGKAGGANTKTAV
- transcriptional activation domain activity: 56000

Sequence: KEKEKQERDARRREKEGAAAAAAGEKRKVEEGSAGGEAVKKAKVGAAAAAVAA
- transcriptional activation domain activity: 47800

Sequence: WLLFLQEYGTITLTLLQSLEYWISNIDLTDESKSQLSKQGRACMYHLIVLTLR
- transcriptional activation domain activity: 53700

Sequence: SKDEEGEGEGEGDEEKVEEGGDEDGEQVEGEDGAKSAAATASAKKFSKREKEM
- transcriptional activation domain activity: 48900

Sequence: MCSCVIRRHPLAKPKMGSFQSIGALTCSSCSSWKMCILLFLILVWFTFRLTSL
- transcriptional activation domain activity: 21400

Sequence: WAQERGVYANVFGYPGGVAWAMLVARICQLYPNAVSAVVIRKFFQIYSQWKWP
- transcriptional activation domain activity: 29700

Sequence: MTGFSFLLMTFFFFLFFLFFFFISLFLLFFPLFSSHSLFFRLLAICSGLWCSG
- transcriptional activation domain activity: 60000

Sequence: VARKLLNTIHPALGPLHACSVLRKIRVLICMAGEHATSTYPLEMLLHSLRVFV
- transcriptional activation domain activity: 44700

Sequence: KEKSASERKEEKRQKKMRGEDVSDSEEEKRKRKDKQRGQRVHAVGSGTTSGAS
- transcriptional activation domain activity: 35900

Sequence: NVLYSRLSILSSLITLSWFLTAHILEYTSIHTCRFSSPHIWWLTFGILCIMYL
- transcriptional activation domain activity: 51600

Sequence: MAIGLSACSILFLFSFTCVFFSFLSCLFLHPFFFLSFLFSLSLSLSLFFFFFA
- transcriptional activation domain activity: 66200

Sequence: KSSKEKDTASVKRGSVESDDTPAAAAAATKGKQLSKDGDADDDSDESDEEKEQ
- transcriptional activation domain activity: 33700

Sequence: CYNLNLVFNWIIRCIISIFLVFMISFLPLFLQELVECGTWKAIWCLMKQFTSL
- transcriptional activation domain activity: 35400

Sequence: LQVVIEECDLMPTVAVLLRDAKKVFPERDGFFLYRQMAISVVCVYILCSLFAL
- transcriptional activation domain activity: 67900

Sequence: LSSLPPSAPPFPPPSPLPPPLCFPLPPLFPPFLPSLSFPLSPPPSHFPFPLIP
- transcriptional activation domain activity: 27100

Sequence: YIATGRGFATTRISFSILYSRFAGPSIYMGMRNLLLLLYATIAIWMPHLIYFW
- transcriptional activation domain activity: 48100

Sequence: SWFDIDEENGDVISRLEWYHLVQMSLVHATILIWWTTGKVLININVSMAVRCG
- transcriptional activation domain activity: 54100

Sequence: LYSIFSLLSIRFFILYSVYVFFFFIGALGGGMLYGLFFFFFFDEVIWYSFFLS
- transcriptional activation domain activity: 35400

Sequence: YAASSASPAPPRKYPPARKASPSPSPTPPRTRKSSASALRRPASTPTPPAPSP
- transcriptional activation domain activity: 23200

Sequence: AKYVTTSMEVTPVTFGTYRTVFLPNGGLFFAILTTIRDFVTRHGLHSKIAMIF
- transcriptional activation domain activity: 54300

Sequence: NHCKVFFLSFLFFVIYNYLLFILFFYILLLYCYPKPLFPLLSSSPPSFPPQFI
- transcriptional activation domain activity: 50300

Sequence: MYLFFFFFLDWFFFVVIITIICILWIWAWDFWACLLGIGIGFACLFYSGWVLF
- transcriptional activation domain activity: 47800

Sequence: MLAYTHFLIMLDRDILNICCVIYFYCLVFICLLLTFLLLIAPLNTCVGLCWKG
- transcriptional activation domain activity: 54400

Sequence: MISIAGFYLFFLGYWRFWMLFINLIVGLLATIGHHVSGLACLIFFCGSSVRIS
- transcriptional activation domain activity: 35300

Sequence: VEEQKPVAEEAPVRTKVEESKVQEAPVVEAKAEVAVTAAAAVAATAAVATAAV
- transcriptional activation domain activity: 23500

Sequence: VWFKIVWAWLYVFTSTWLLGVFLSYVKWWLLWVPWFLRSRVRCCVFLAILYIV
- transcriptional activation domain activity: 73800

Sequence: LFLAGILRWGSRIVLVLFLLLLFRLSLLFCLGHLFFAYSLSTLGILLLLMIFF
- transcriptional activation domain activity: 31600

Sequence: ERLPVDLAVLCTIVEKLFGLAIMTARHRDLGSLHGVLLPRTWILSLWGDFLRF
- transcriptional activation domain activity: 71700

Sequence: GASPEESNSGNSRAGASRARKGSKVIDENMVEDALLGLQITHGCLVHHTASVQ
- transcriptional activation domain activity: 44800

Sequence: TSPAPASSANGPAPPRRKRQATTAACRACRKRKSKCDGARPTCSVCRDRKTKC
- transcriptional activation domain activity: 13100

Sequence: HKRRRDSVMMDYDLSNFFSSRQLDISKVLNGTEQNNSHVNDDVLTLSFPGETD
- transcriptional activation domain activity: 35100

Sequence: MSMLQVQWCYVMLYFDLSTSELLYFYLYLIFYSSFLFFNLWWLLNVDDASAPA
- transcriptional activation domain activity: 41500

Sequence: ALLFLNTLLELLESYHKSQYLAEILSRLQVDWRSLWSWLSVFIRSYANLKMGT
- transcriptional activation domain activity: 28300

Sequence: MPLWPPFWSAFSFSFSFVLSFFFFLFPFPFPFPFPFSFSLSFLFFLFFSFLFF
- transcriptional activation domain activity: 31000

Sequence: VPGEVTDAEANGEVKAEDADGAEKTKPKKKKKSKAAKAKAKAEGAVEGATAAV
- transcriptional activation domain activity: 52900

Sequence: MSATEATAVPAPAEEVKVVETPAVDPVPEAPAAEESAPATEVKKEERPKSPSL
- transcriptional activation domain activity: 54600

Sequence: YLMHGLVLFSIVPSVFIPIYEYHQLSYIAASMICAFIYIIFAVICGWLFWWTV
- transcriptional activation domain activity: 40600

Sequence: MLLLLITHIGIAILFVCWNPRFSCPNQSPDQQGTCRLFNMYILISSWIIPAFL
- transcriptional activation domain activity: 55600

Sequence: MALEQRCQPTCEAVLLFLLLLFLPLWLLFERFKNLLLLLWPLFFFFFLLLLLW
- transcriptional activation domain activity: 35100

Sequence: LARVYIRVFVLRVFRLDDYFIVVAMLCSILACSIFLWVVHLGMGKHFFALPPE
- transcriptional activation domain activity: 63900

Sequence: LLLLLVYSNVALLVYHAPTYTRPFDMALIHAPLRFFMILPLSLLFPYSLFITL
- transcriptional activation domain activity: 57700

Sequence: MSNLELMRFLTKPDVKLELSVKIDDIYWNCIFSLRYREMYTASLLRYMVFFLR
- transcriptional activation domain activity: 52700

Sequence: MHSPHNCRVSKHFVIFCFFFFFFLFCRPLPLLSNLILTLFFSSFFLLGLFGVL
- transcriptional activation domain activity: 64700

Sequence: LFFSSFLYFSLSLGAPGNYFFDVTFFFIPYPPLCIASYSLGFFFFFSFFFFFS
- transcriptional activation domain activity: 70900

Sequence: RFLICDYLLIIAGLFNIVATSLTQVVVNLGLGRHIMDPSVFPNILQYSYYLWI
- transcriptional activation domain activity: 25000

Sequence: MGSDPFGGLNLFSTALFPLYLYCLTLDPPNYSNWLIFLSQHFLFSGLFRVLCF
- transcriptional activation domain activity: 56600

Sequence: NADGMDGEKFYKSIDSAYGFANSSLVHLLLHDQKLLMRLRYLRRLFFGAESDW
- transcriptional activation domain activity: 48800

Sequence: SILASLGFIVCGVYIWVTSHWNPQHVRDGLPLLYFSGHLRCKIYSIVLNLFVT
- transcriptional activation domain activity: 69900

Sequence: MHPFSPHCLSLSLLLKFSQLFNISFFLLVMHFLWLDILGFFFILFPNHFPMFG
- transcriptional activation domain activity: 43800
